Data set [1] deals with dRBD #3L (LwaCas13a with hnRNP A1 RRM2 98-196 inserted between N415 and N416, catalytically inactive HEPN2) R1046A/H1051A (LwaCas13a numbering) (Leptotrichia wadei / Homo sapiens). The data set is described as follows: EMSA.
Data set [2] relates to dRBD #4L (LwaCas13a with hnRNP C RRM 2-106 inserted between N415 and N416, catalytically inactive HEPN2) R1046A/H1051A (LwaCas13a numbering) (Leptotrichia wadei / Homo sapiens). Put plainly: EMSA. For orientation: A gel shift assay detects complexes by their altered migration in electrophoresis.
The subject of data set [3] is RBD #4L LwaCas13a (Leptotrichia wadei / Homo sapiens). The data set is described as follows: cleavage_in_vitro. The conditions noted are these: collateral cleavage of RNaseAlert.
Data set [4] relates to RBD #2L LwaCas13a (hnRNP A1 1-104 in Loop 1) (Leptotrichia wadei / Homo sapiens). Put plainly: cleavage_in_vitro. The note with it: collateral cleavage of RNaseAlert.
Data set [5] has as its system RBD #3L LwaCas13a (Leptotrichia wadei / Homo sapiens). The data set is described as follows: cleavage_in_vitro. The conditions noted are these: collateral cleavage of RNaseAlert.
Data set [6] has as its system T1, RBD #6L LwaCas13a (ADAR1 126-202 in Loop 1) (Leptotrichia wadei / Homo sapiens).
T1 sequence: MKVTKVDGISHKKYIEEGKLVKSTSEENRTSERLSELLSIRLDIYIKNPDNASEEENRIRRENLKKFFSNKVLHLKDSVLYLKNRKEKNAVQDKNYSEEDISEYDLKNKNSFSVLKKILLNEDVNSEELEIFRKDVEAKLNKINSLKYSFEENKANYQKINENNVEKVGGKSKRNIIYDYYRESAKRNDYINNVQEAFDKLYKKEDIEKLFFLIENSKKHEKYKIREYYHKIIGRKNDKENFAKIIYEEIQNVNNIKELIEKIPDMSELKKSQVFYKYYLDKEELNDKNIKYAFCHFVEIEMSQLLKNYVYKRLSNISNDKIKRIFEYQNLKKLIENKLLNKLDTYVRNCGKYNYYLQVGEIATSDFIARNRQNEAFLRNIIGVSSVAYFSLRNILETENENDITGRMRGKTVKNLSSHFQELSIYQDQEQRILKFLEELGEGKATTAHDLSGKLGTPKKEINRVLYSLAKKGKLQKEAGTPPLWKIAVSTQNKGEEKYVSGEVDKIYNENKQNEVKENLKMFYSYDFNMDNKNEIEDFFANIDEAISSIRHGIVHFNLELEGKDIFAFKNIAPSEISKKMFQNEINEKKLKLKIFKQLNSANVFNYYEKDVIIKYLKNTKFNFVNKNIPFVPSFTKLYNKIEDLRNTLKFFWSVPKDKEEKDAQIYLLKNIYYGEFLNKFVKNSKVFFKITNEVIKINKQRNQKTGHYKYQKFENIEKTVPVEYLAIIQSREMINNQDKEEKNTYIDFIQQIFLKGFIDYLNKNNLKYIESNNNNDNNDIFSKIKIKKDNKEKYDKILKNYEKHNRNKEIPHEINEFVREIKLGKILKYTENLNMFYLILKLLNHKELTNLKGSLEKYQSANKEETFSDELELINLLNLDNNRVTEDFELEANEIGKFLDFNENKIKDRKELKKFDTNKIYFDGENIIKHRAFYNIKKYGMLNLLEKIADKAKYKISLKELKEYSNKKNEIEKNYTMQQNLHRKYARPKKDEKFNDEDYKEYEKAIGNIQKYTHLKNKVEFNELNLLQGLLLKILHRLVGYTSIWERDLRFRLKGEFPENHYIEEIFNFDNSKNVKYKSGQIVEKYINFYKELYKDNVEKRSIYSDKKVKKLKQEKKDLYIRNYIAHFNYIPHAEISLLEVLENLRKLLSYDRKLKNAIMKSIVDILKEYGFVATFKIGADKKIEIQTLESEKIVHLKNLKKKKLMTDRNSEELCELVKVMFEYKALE
The data set is described as follows: cleavage_in_vitro. The conditions noted are these: collateral cleavage of RNaseAlert.

[7] abbreviates: crRNA complex, 50 mM Tris pH 8.0, 60 mM NaCl, 5 mM MgCl2, 37 C.
Setting [8] is: crRNA complex, 5 mM MgCl2, 37 C.
[9] abbreviates: collateral reporter binding by cr1/T1-bound complex, pH 7.5, 5 mM MgCl2, 0.01% Triton X-100.

This passage reports Kd and binding signal (% higher than WT) results from patent publication US20250019680.

As for “GACUACCCCAAAAACGAAGGGGACUAAAACAAUCUGAGGGUCCACCAAACGUAAUGCG / ACCCCGCAUUACGUUUGGUGGACCCUCAGAUUCAAC [cr1_N crRNA ; T26_N_2 target (36 nt)]”, the Kd in data set [1] (setting [7]) came out at 23 nM; in data set [2] (setting [7]), 18 nM.

Turning to “GACUACCCCAAAAACGAAGGGGACUAAAACAAUCUGAGGGUCCACCAAACGUAAUGCG / GUCUGAUAAUGGACCCCAAAAUCAGCGAAAUGCACCCCGCAUUACGUUUGGUGGACCCUCAGAUUCAACUGGCAGUAACCAGAAUGGAGAACGCAGUGGGGCGCG [cr1_N crRNA ; T1_N target (105 nt)]”, the dissociation constant Kd in data set [1] (setting [8]) is 12 nM; in data set [2] (setting [8]), 11 nM.

For the sequence “GACUACCCCAAAAACGAAGGGGACUAAAACUCACUCAAUACUUGAGCACACUCAUUAG / GUGAUAGAGCCAUGCCUAACAUGCUUAGAAUUAUGGCCUCACUUGUUCUUGCUCGCAAACAUACAACGUGUUGUAGCUUGUCACACCGUUUCUAUAGAUUAGCUAAUGAGUGUGCUCAAGUAUUGAGUGAAAUGGUCAUGUGUGGCGGUUCACUAUAUGUUAAACCAGGUGGAACCUCAUCAGGAGAUGCCACAACUGCUUAUGCUAAUAGUGUUUUUAACAUUUGU [cr2_RdRp crRNA ; T2_RdRp target]”, the binding signal (% higher than WT) turned out to be 241 in data set [3], 164 in data set [4], 264 in data set [5] and 171 in data set [6].

As for UUUUUUUUUUUUUUUUUUUU [U20 reporter], the Kd was 230 nM in data set [1] (setting [9]) and 150 nM in data set [2] (setting [9]).

Usually Kd stands for the concentration at which binding is half-saturated. A lower Kd goes with tighter binding.
